From patent US20160347808A1 (IMMATICS BIOTECHNOLOGIES, published 2016) come the findings set out here.

The target of this experiment is T1, HLA-A*02:01 (peptide-receptive MHC class I monomer from UV-ligand exchange) (human).
T1 construct: Monomers were captured on streptavidin-coated plates
Kind of experiment: UV-exchange ELISA (anti-b2m); exchange yield grade: + >=10%, ++ >=20%, +++ >=50%, ++++ >=75%. An excerpt: Candidate peptides for T cell based therapies according to the present invention were further tested for their MHC binding capacity (affinity). The individual peptide-MHC complexes were produced by UV-ligand exchange, where a UV-sensitive peptide is cleaved upon UV-irradiation, and exchanged with the peptide of interest as analyzed. Only peptide candidates that can effectively bind and stabilize the peptide-receptive MHC molecules prevent dissociation of the MHC complexes. To determine the yield of the exchange reaction, an ELISA was performed based on the detection of the light chain (β2m) of stabilized MHC complexes. The assay was performed as generally described in Rodenko et al. (Rodenko et al., 2006).
96 well MAXISorp plates (NUNC) were coated over night with 2 ug/ml streptavidin in PBS at room temperature, washed 4× and blocked for 1 h at 37° C. in 2% BSA containing blocking buffer. Refolded HLA-A*02:01/MLA-001 monomers served as standards, covering the range of 15-500 ng/ml. Peptide-MHC monomers of the UV-exchange reaction were diluted 100 fold in blocking buffer. Samples were incubated for 1 h at 37° C., washed four times, incubated with 2 ug/ml HRP conjugated anti-β2m for 1 h at 37° C., washed again and detected with TMB solution that is stopped with […]. Absorption was measured at 450 nm. Candidate peptides that show a high exchange yield (preferably higher than 50%, most preferred higher than 75%) are generally preferred for a generation and production of antibodies or fragments thereof, and/or T cell receptors or fragments thereof, as they show sufficient avidity to the MHC molecules and prevent dissociation of the MHC complexes.
For orientation: ELISA stands for enzyme-linked immunosorbent assay.
Consider ILDDSFKLL [peptide ILDDSFKLL (SEQ ID NO 41)], for which the peptide exchange yield was 20 to 50%.

Turning to GLDDGPDFL [peptide GLDDGPDFL (SEQ ID NO 66)], the peptide exchange yield lay in the range of 20 to 50%.

For MISELEVRL [peptide MISELEVRL (SEQ ID NO 70)], the peptide exchange yield was 50 to 75%.

Regarding ALLSQQTHL [peptide ALLSQQTHL (SEQ ID NO 81)], the peptide exchange yield was 50 to 75%.

TLDAAQPRV [peptide TLDAAQPRV (SEQ ID NO 43)]: the peptide exchange yield lay within 20 to 50%.

Take LLFDAPDLRL [peptide LLFDAPDLRL (SEQ ID NO 87)]: the peptide exchange yield is 50 to 75%.

GLLESPSIFNFTA [peptide GLLESPSIFNFTA (SEQ ID NO 36)]: the peptide exchange yield was 50 to 75%.

For KLDIKVETV [peptide KLDIKVETV (SEQ ID NO 88)], the peptide exchange yield was not below 75%.

As for FLDASDPAL [peptide FLDASDPAL (SEQ ID NO 48)], the peptide exchange yield is 20 to 50%.

With VLFTDEGVPKFL [peptide VLFTDEGVPKFL (SEQ ID NO 56)], the peptide exchange yield was 20 to 50%.

Turning to ALDSSNSMQTI [peptide ALDSSNSMQTI (SEQ ID NO 52)], the peptide exchange yield lay within 20 to 50%.

In the case of ILLEKSVSV [peptide ILLEKSVSV (SEQ ID NO 34)], the peptide exchange yield was 50 to 75%.

In the case of EMIENIQSV [peptide EMIENIQSV (SEQ ID NO 75)], the peptide exchange yield was in the range of 20 to 50%.

LLTDNVVKL [peptide LLTDNVVKL (SEQ ID NO 59)]: the peptide exchange yield fell in the range of 50 to 75%.

As for SLLKRDFGA [peptide SLLKRDFGA (SEQ ID NO 77)], the peptide exchange yield lay within 20 to 50%.

For SLAPTPVSA [peptide SLAPTPVSA (SEQ ID NO 38)], the peptide exchange yield lay in the range of 20 to 50%.

Consider GLSSAYGGL [peptide GLSSAYGGL (SEQ ID NO 30)], for which the peptide exchange yield was in the range of 10 to 20%.

As for KLLKLFQGV [peptide KLLKLFQGV (SEQ ID NO 61)], the peptide exchange yield fell in the range of 50 to 75%.

Turning to RLWTEIPTAI [peptide RLWTEIPTAI (SEQ ID NO 71)], the peptide exchange yield was in the range of 50 to 75%.

As for AMADKMDMSL [peptide AMADKMDMSL (SEQ ID NO 58)], the peptide exchange yield lay within 20 to 50%.

For KLFSILSTV [peptide KLFSILSTV (SEQ ID NO 63)], the peptide exchange yield lay within 20 to 50%.

On to GLFAGLGGAGA [peptide GLFAGLGGAGA (SEQ ID NO 37)], for which the peptide exchange yield was in the range of 50 to 75%.

With QLYEEPDTKL [peptide QLYEEPDTKL (SEQ ID NO 82)], the peptide exchange yield was in the range of 20 to 50%.

As to GLDDRYSLV [peptide GLDDRYSLV (SEQ ID NO 46)], the peptide exchange yield lay within 50 to 75%.

In the case of KLYERCEVV [peptide KLYERCEVV (SEQ ID NO 47)], the peptide exchange yield is 20 to 50%.

As for KTLGKLWRL [peptide KTLGKLWRL (SEQ ID NO 64)], the peptide exchange yield lay in the range of 20 to 50%.

For SLESKLTSV [peptide SLESKLTSV (SEQ ID NO 44)], the peptide exchange yield lay within 50 to 75%.

Regarding WLFDDGGLTL [peptide WLFDDGGLTL (SEQ ID NO 5)], the peptide exchange yield is not below 75%.

With LTIEDGIFEV [peptide LTIEDGIFEV (SEQ ID NO 83)], the peptide exchange yield was 50 to 75%.

Take FLLGSEIKL [peptide FLLGSEIKL (SEQ ID NO 53)]: the peptide exchange yield fell in the range of 50 to 75%.

As to KLLDLTVRI [peptide KLLDLTVRI (SEQ ID NO 35)], the peptide exchange yield fell in the range of 50 to 75%.

QVDEVVDIMRV [peptide QVDEVVDIMRV (SEQ ID NO 80)]: the peptide exchange yield is 20 to 50%.

On to ALAELLHGA [peptide ALAELLHGA (SEQ ID NO 45)], for which the peptide exchange yield lay in the range of 50 to 75%.

As for GMLNEAEGKAIKL [peptide GMLNEAEGKAIKL (SEQ ID NO 69)], the peptide exchange yield was 20 to 50%.

Turning to FLAELPGSLSL [peptide FLAELPGSLSL (SEQ ID NO 6)], the peptide exchange yield was in the range of 50 to 75%.

Regarding YLLDYPNNLL [peptide YLLDYPNNLL (SEQ ID NO 72)], the peptide exchange yield was in the range of 50 to 75%.

For ALWEKNTHL [peptide ALWEKNTHL (SEQ ID NO 33)], the peptide exchange yield lay in the range of 50 to 75%.

For the molecule KLNTETFGV [peptide KLNTETFGV (SEQ ID NO 32)], the peptide exchange yield was in the range of 20 to 50%.

For SILQFVHMV [peptide SILQFVHMV (SEQ ID NO 68)], the peptide exchange yield lay in the range of 50 to 75%.

In the case of YLTRHLAVL [peptide YLTRHLAVL (SEQ ID NO 7)], the peptide exchange yield was in the range of 20 to 50%.

On to SILDDSFKL [peptide SILDDSFKL (SEQ ID NO 42)], for which the peptide exchange yield is not below 75%.

Take YLIGEKQHYL [peptide YLIGEKQHYL (SEQ ID NO 76)]: the peptide exchange yield was in the range of 50 to 75%.

Regarding SLNDLEKDVMLL [peptide SLNDLEKDVMLL (SEQ ID NO 67)], the peptide exchange yield fell in the range of 50 to 75%.

For YLMGFLHAV [peptide YLMGFLHAV (SEQ ID NO 74)], the peptide exchange yield lay in the range of 50 to 75%.

Take NLLEKENYL [peptide NLLEKENYL (SEQ ID NO 57)]: the peptide exchange yield was in the range of 50 to 75%.

On to ILHDINSDGVL [peptide ILHDINSDGVL (SEQ ID NO 85)], for which the peptide exchange yield lay within 20 to 50%.

As for YLFDIAVSM [peptide YLFDIAVSM (SEQ ID NO 73)], the peptide exchange yield was in the range of 50 to 75%.

For ALLNGEYLLAA [peptide ALLNGEYLLAA (SEQ ID NO 54)], the peptide exchange yield was 50 to 75%.

With LLYGKYVSV [peptide LLYGKYVSV (SEQ ID NO 31)], the peptide exchange yield was 50 to 75%.

Regarding KVFPGKISV [peptide KVFPGKISV (SEQ ID NO 86)], the peptide exchange yield fell in the range of 20 to 50%.

For the molecule TLMAEMHVV [peptide TLMAEMHVV (SEQ ID NO 50)], the peptide exchange yield fell in the range of 50 to 75%.

On to ALSNVIHKV [peptide ALSNVIHKV (SEQ ID NO 40)], for which the peptide exchange yield was in the range of 20 to 50%.

Regarding YLAPENGYL [peptide YLAPENGYL (SEQ ID NO 62)], the peptide exchange yield was in the range of 20 to 50%.

Regarding SMVEDITGLRL [peptide SMVEDITGLRL (SEQ ID NO 84)], the peptide exchange yield lay in the range of 50 to 75%.

For SLAADQLLKL [peptide SLAADQLLKL (SEQ ID NO 79)], the peptide exchange yield lay within 20 to 50%.

Regarding VLDEDEPRFL [peptide VLDEDEPRFL (SEQ ID NO 60)], the peptide exchange yield was 20 to 50%.

For QVWEIQHTV [peptide QVWEIQHTV (SEQ ID NO 51)], the peptide exchange yield lay within 20 to 50%.

As for ALDPELLLL [peptide ALDPELLLL (SEQ ID NO 78)], the peptide exchange yield lay in the range of 20 to 50%.

RLAELTVDEFL [peptide RLAELTVDEFL (SEQ ID NO 4)]: the peptide exchange yield lay in the range of 50 to 75%.

Consider ALMLQGVDLL [peptide ALMLQGVDLL (SEQ ID NO 8)], for which the peptide exchange yield lay within 50 to 75%.
